Experimental data reported in US20180071366A1.
Numbered stars: 1 amine (or outer) side, 2 acyl side, 3 side chain; on linkers, the order of the positions; unused ones are H or OH. Bridge positions count the residues as written; N and C are the ends. Square brackets hold non-standard residues; d marks the D form. * marks the point of attachment. C20 diacid = O=C(O)CCCCCCCCCCCCCCCCCCC(=O)*; γGlu = O=C(O)[C@H](CCC(=O)[*:2])N[*:1]; Hyp = O=C(O)[C@@H]1C[C@@H](O)CN1; NMeI = CC[C@H](C)[C@H](NC)C(=O)O; Orn = NCCC[C@H](N)C(=O)O; Sar = CNCC(=O)O

Columns and labels:
[1] = molecular target: recombinant human calcitonin receptor (hCT-R) (human), P30988; assay: cell-based or functional assay
[2] = molecular target: recombinant human amylin 3 receptor (hAMYR3) (human), P30988; assay: cell-based or functional assay
Sequence of recombinant human amylin 3 receptor (hAMYR3) (human), P30988 (P30988 25-474, chain 1 of 2): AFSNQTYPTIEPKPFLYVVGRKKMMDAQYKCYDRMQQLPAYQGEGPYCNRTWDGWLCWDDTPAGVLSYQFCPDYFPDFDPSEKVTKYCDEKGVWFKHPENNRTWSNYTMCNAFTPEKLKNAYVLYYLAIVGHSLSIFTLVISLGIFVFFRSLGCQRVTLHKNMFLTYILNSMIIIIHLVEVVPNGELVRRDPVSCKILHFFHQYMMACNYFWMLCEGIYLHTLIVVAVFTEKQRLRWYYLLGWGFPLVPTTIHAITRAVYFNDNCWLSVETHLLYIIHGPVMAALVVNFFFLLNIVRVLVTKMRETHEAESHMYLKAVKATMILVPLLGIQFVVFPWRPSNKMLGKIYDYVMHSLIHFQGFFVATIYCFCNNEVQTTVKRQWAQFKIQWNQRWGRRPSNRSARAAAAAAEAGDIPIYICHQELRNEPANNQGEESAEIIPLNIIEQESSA
Sequence of recombinant human amylin 3 receptor (hAMYR3) (human), P30988 (O60896 24-148, chain 2 of 2, further chain): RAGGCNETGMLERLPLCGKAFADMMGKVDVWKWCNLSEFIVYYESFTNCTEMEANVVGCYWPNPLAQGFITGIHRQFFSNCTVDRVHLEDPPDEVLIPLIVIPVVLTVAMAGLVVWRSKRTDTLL

Sequence of recombinant human calcitonin receptor (hCT-R) (human), P30988 (P30988 25-474): as the sequence (P30988 25-474, chain 1 of 2) above

B1: Compound 7 (peptide)
peptide: {C20 diacid-γGlu}-RDGTAT[Orn]ATERLAHFLHRSSF[Sar]A[NMeI]LSSTEVGSNTP-NH2
modifications: lactam 2-7
SMILES: CC[C@H](C)[C@@H](C(=O)N[C@@H](CC(C)C)C(=O)N[C@@H](CO)C(=O)N[C@@H](CO)C(=O)N[C@H](C(=O)N[C@@H](CCC(=O)O)C(=O)N[C@H](C(=O)NCC(=O)N[C@@H](CO)C(=O)N[C@@H](CC(N)=O)C(=O)N[C@H](C(=O)N1CCC[C@H]1C(N)=O)[C@@H](C)O)C(C)C)[C@@H](C)O)N(C)C(=O)[C@H](C)NC(=O)CN(C)C(=O)[C@H](Cc1ccccc1)NC(=O)[C@H](CO)NC(=O)[C@H](CO)NC(=O)[C@H](CCCNC(=N)N)NC(=O)[C@H](Cc1c[nH]cn1)NC(=O)[C@H](CC(C)C)NC(=O)[C@H](Cc1ccccc1)NC(=O)[C@H](Cc1c[nH]cn1)NC(=O)[C@H](C)NC(=O)[C@H](CC(C)C)NC(=O)[C@H](CCCNC(=N)N)NC(=O)[C@H](CCC(=O)O)NC(=O)[C@@H](NC(=O)[C@H](C)NC(=O)[C@@H]1CCCNC(=O)C[C@H](NC(=O)[C@H](CCCNC(=N)N)NC(=O)CC[C@H](NC(=O)CCCCCCCCCCCCCCCCCCC(=O)O)C(=O)O)C(=O)NCC(=O)N[C@@H]([C@@H](C)O)C(=O)N[C@@H](C)C(=O)N[C@@H]([C@@H](C)O)C(=O)N1)[C@@H](C)O
With B1 the hCT-R EC50 [nM] (cAMP formation, 1321N1 cells expressing hCT-R) [1] was 0.289 nM and the hAMYR3 EC50 [nM] (cAMP formation, 1321N1 cells expressing hAMYR3) [2] was 0.032 nM.

B2: Compound 8 (peptide)
peptide: {C20 diacid-γGlu}-RDGTAT[Orn]ATQRLAHFLQRSSF[Sar]A[NMeI]LSSTEVGSNT[Hyp]-NH2
modifications: lactam 2-7
SMILES: CC[C@H](C)[C@@H](C(=O)N[C@@H](CC(C)C)C(=O)N[C@@H](CO)C(=O)N[C@@H](CO)C(=O)N[C@H](C(=O)N[C@@H](CCC(=O)O)C(=O)N[C@H](C(=O)NCC(=O)N[C@@H](CO)C(=O)N[C@@H](CC(N)=O)C(=O)N[C@H](C(=O)N1C[C@H](O)C[C@H]1C(N)=O)[C@@H](C)O)C(C)C)[C@@H](C)O)N(C)C(=O)[C@H](C)NC(=O)CN(C)C(=O)[C@H](Cc1ccccc1)NC(=O)[C@H](CO)NC(=O)[C@H](CO)NC(=O)[C@H](CCCNC(=N)N)NC(=O)[C@H](CCC(N)=O)NC(=O)[C@H](CC(C)C)NC(=O)[C@H](Cc1ccccc1)NC(=O)[C@H](Cc1c[nH]cn1)NC(=O)[C@H](C)NC(=O)[C@H](CC(C)C)NC(=O)[C@H](CCCNC(=N)N)NC(=O)[C@H](CCC(N)=O)NC(=O)[C@@H](NC(=O)[C@H](C)NC(=O)[C@@H]1CCCNC(=O)C[C@H](NC(=O)[C@H](CCCNC(=N)N)NC(=O)CC[C@H](NC(=O)CCCCCCCCCCCCCCCCCCC(=O)O)C(=O)O)C(=O)NCC(=O)N[C@@H]([C@@H](C)O)C(=O)N[C@@H](C)C(=O)N[C@@H]([C@@H](C)O)C(=O)N1)[C@@H](C)O
B2 was tested, and the hCT-R EC50 [nM] (cAMP formation, 1321N1 cells expressing hCT-R) [1] was 0.129 nM and the hAMYR3 EC50 [nM] (cAMP formation, 1321N1 cells expressing hAMYR3) [2] was 0.059 nM.

B3: Compound 9 (peptide)
peptide: {C20 diacid-γGlu}-RDGTAT[Orn]ATQRLAHFLQRSSF[Sar]A[NMeI]PSSTEVGSNT[Hyp]-NH2
modifications: lactam 2-7
SMILES: CC[C@H](C)[C@@H](C(=O)N1CCC[C@H]1C(=O)N[C@@H](CO)C(=O)N[C@@H](CO)C(=O)N[C@H](C(=O)N[C@@H](CCC(=O)O)C(=O)N[C@H](C(=O)NCC(=O)N[C@@H](CO)C(=O)N[C@@H](CC(N)=O)C(=O)N[C@H](C(=O)N1C[C@H](O)C[C@H]1C(N)=O)[C@@H](C)O)C(C)C)[C@@H](C)O)N(C)C(=O)[C@H](C)NC(=O)CN(C)C(=O)[C@H](Cc1ccccc1)NC(=O)[C@H](CO)NC(=O)[C@H](CO)NC(=O)[C@H](CCCNC(=N)N)NC(=O)[C@H](CCC(N)=O)NC(=O)[C@H](CC(C)C)NC(=O)[C@H](Cc1ccccc1)NC(=O)[C@H](Cc1c[nH]cn1)NC(=O)[C@H](C)NC(=O)[C@H](CC(C)C)NC(=O)[C@H](CCCNC(=N)N)NC(=O)[C@H](CCC(N)=O)NC(=O)[C@@H](NC(=O)[C@H](C)NC(=O)[C@@H]1CCCNC(=O)C[C@H](NC(=O)[C@H](CCCNC(=N)N)NC(=O)CC[C@H](NC(=O)CCCCCCCCCCCCCCCCCCC(=O)O)C(=O)O)C(=O)NCC(=O)N[C@@H]([C@@H](C)O)C(=O)N[C@@H](C)C(=O)N[C@@H]([C@@H](C)O)C(=O)N1)[C@@H](C)O
With B3 the hCT-R EC50 [nM] (cAMP formation, 1321N1 cells expressing hCT-R) [1] was 0.027 nM and the hAMYR3 EC50 [nM] (cAMP formation, 1321N1 cells expressing hAMYR3) [2] was 0.013 nM.

B4: Compound 10 (peptide)
peptide: {C20 diacid-γGlu}-RDGTAT[Orn]ATERLARFLQRSSF[Sar]A[NMeI]LSSTEVGSNT[Hyp]-NH2
modifications: lactam 2-7
SMILES: CC[C@H](C)[C@@H](C(=O)N[C@@H](CC(C)C)C(=O)N[C@@H](CO)C(=O)N[C@@H](CO)C(=O)N[C@H](C(=O)N[C@@H](CCC(=O)O)C(=O)N[C@H](C(=O)NCC(=O)N[C@@H](CO)C(=O)N[C@@H](CC(N)=O)C(=O)N[C@H](C(=O)N1C[C@H](O)C[C@H]1C(N)=O)[C@@H](C)O)C(C)C)[C@@H](C)O)N(C)C(=O)[C@H](C)NC(=O)CN(C)C(=O)[C@H](Cc1ccccc1)NC(=O)[C@H](CO)NC(=O)[C@H](CO)NC(=O)[C@H](CCCNC(=N)N)NC(=O)[C@H](CCC(N)=O)NC(=O)[C@H](CC(C)C)NC(=O)[C@H](Cc1ccccc1)NC(=O)[C@H](CCCNC(=N)N)NC(=O)[C@H](C)NC(=O)[C@H](CC(C)C)NC(=O)[C@H](CCCNC(=N)N)NC(=O)[C@H](CCC(=O)O)NC(=O)[C@@H](NC(=O)[C@H](C)NC(=O)[C@@H]1CCCNC(=O)C[C@H](NC(=O)[C@H](CCCNC(=N)N)NC(=O)CC[C@H](NC(=O)CCCCCCCCCCCCCCCCCCC(=O)O)C(=O)O)C(=O)NCC(=O)N[C@@H]([C@@H](C)O)C(=O)N[C@@H](C)C(=O)N[C@@H]([C@@H](C)O)C(=O)N1)[C@@H](C)O
B4 was tested, and the hCT-R EC50 [nM] (cAMP formation, 1321N1 cells expressing hCT-R) [1] was 0.345 nM and the hAMYR3 EC50 [nM] (cAMP formation, 1321N1 cells expressing hAMYR3) [2] was 0.068 nM.

B5: Compound 11 (peptide)
peptide: {C20 diacid-γGlu}-EDGTATKATERLAHFLQRSSF[Sar]A[NMeI]LSSTEVGSNT[Hyp]-NH2
modifications: lactam 2-7
SMILES: CC[C@H](C)[C@@H](C(=O)N[C@@H](CC(C)C)C(=O)N[C@@H](CO)C(=O)N[C@@H](CO)C(=O)N[C@H](C(=O)N[C@@H](CCC(=O)O)C(=O)N[C@H](C(=O)NCC(=O)N[C@@H](CO)C(=O)N[C@@H](CC(N)=O)C(=O)N[C@H](C(=O)N1C[C@H](O)C[C@H]1C(N)=O)[C@@H](C)O)C(C)C)[C@@H](C)O)N(C)C(=O)[C@H](C)NC(=O)CN(C)C(=O)[C@H](Cc1ccccc1)NC(=O)[C@H](CO)NC(=O)[C@H](CO)NC(=O)[C@H](CCCNC(=N)N)NC(=O)[C@H](CCC(N)=O)NC(=O)[C@H](CC(C)C)NC(=O)[C@H](Cc1ccccc1)NC(=O)[C@H](Cc1c[nH]cn1)NC(=O)[C@H](C)NC(=O)[C@H](CC(C)C)NC(=O)[C@H](CCCNC(=N)N)NC(=O)[C@H](CCC(=O)O)NC(=O)[C@@H](NC(=O)[C@H](C)NC(=O)[C@@H]1CCCCNC(=O)C[C@H](NC(=O)[C@H](CCC(=O)O)NC(=O)CC[C@H](NC(=O)CCCCCCCCCCCCCCCCCCC(=O)O)C(=O)O)C(=O)NCC(=O)N[C@@H]([C@@H](C)O)C(=O)N[C@@H](C)C(=O)N[C@@H]([C@@H](C)O)C(=O)N1)[C@@H](C)O
B5 showed a hCT-R EC50 [nM] (cAMP formation, 1321N1 cells expressing hCT-R) [1] of 0.068 nM and a hAMYR3 EC50 [nM] (cAMP formation, 1321N1 cells expressing hAMYR3) [2] of 0.024 nM.

B6: Compound 12 (peptide)
peptide: {C20 diacid-γGlu}-RDGEATKATERLAHFLQRSSF[Sar]A[NMeI]LSSTEVGSNT[Hyp]-NH2
modifications: lactam 2-7
SMILES: CC[C@H](C)[C@@H](C(=O)N[C@@H](CC(C)C)C(=O)N[C@@H](CO)C(=O)N[C@@H](CO)C(=O)N[C@H](C(=O)N[C@@H](CCC(=O)O)C(=O)N[C@H](C(=O)NCC(=O)N[C@@H](CO)C(=O)N[C@@H](CC(N)=O)C(=O)N[C@H](C(=O)N1C[C@H](O)C[C@H]1C(N)=O)[C@@H](C)O)C(C)C)[C@@H](C)O)N(C)C(=O)[C@H](C)NC(=O)CN(C)C(=O)[C@H](Cc1ccccc1)NC(=O)[C@H](CO)NC(=O)[C@H](CO)NC(=O)[C@H](CCCNC(=N)N)NC(=O)[C@H](CCC(N)=O)NC(=O)[C@H](CC(C)C)NC(=O)[C@H](Cc1ccccc1)NC(=O)[C@H](Cc1c[nH]cn1)NC(=O)[C@H](C)NC(=O)[C@H](CC(C)C)NC(=O)[C@H](CCCNC(=N)N)NC(=O)[C@H](CCC(=O)O)NC(=O)[C@@H](NC(=O)[C@H](C)NC(=O)[C@@H]1CCCCNC(=O)C[C@H](NC(=O)[C@H](CCCNC(=N)N)NC(=O)CC[C@H](NC(=O)CCCCCCCCCCCCCCCCCCC(=O)O)C(=O)O)C(=O)NCC(=O)N[C@@H](CCC(=O)O)C(=O)N[C@@H](C)C(=O)N[C@@H]([C@@H](C)O)C(=O)N1)[C@@H](C)O
B6 showed a hCT-R EC50 [nM] (cAMP formation, 1321N1 cells expressing hCT-R) [1] of 0.893 nM and a hAMYR3 EC50 [nM] (cAMP formation, 1321N1 cells expressing hAMYR3) [2] of 0.999 nM.

B7: Compound 13 (peptide)
peptide: {C20 diacid-γGlu}-RDGTLTKATERLAHFLQRSSF[Sar]A[NMeI]LSSTEVGSNT[Hyp]-NH2
modifications: lactam 2-7
SMILES: CC[C@H](C)[C@@H](C(=O)N[C@@H](CC(C)C)C(=O)N[C@@H](CO)C(=O)N[C@@H](CO)C(=O)N[C@H](C(=O)N[C@@H](CCC(=O)O)C(=O)N[C@H](C(=O)NCC(=O)N[C@@H](CO)C(=O)N[C@@H](CC(N)=O)C(=O)N[C@H](C(=O)N1C[C@H](O)C[C@H]1C(N)=O)[C@@H](C)O)C(C)C)[C@@H](C)O)N(C)C(=O)[C@H](C)NC(=O)CN(C)C(=O)[C@H](Cc1ccccc1)NC(=O)[C@H](CO)NC(=O)[C@H](CO)NC(=O)[C@H](CCCNC(=N)N)NC(=O)[C@H](CCC(N)=O)NC(=O)[C@H](CC(C)C)NC(=O)[C@H](Cc1ccccc1)NC(=O)[C@H](Cc1c[nH]cn1)NC(=O)[C@H](C)NC(=O)[C@H](CC(C)C)NC(=O)[C@H](CCCNC(=N)N)NC(=O)[C@H](CCC(=O)O)NC(=O)[C@@H](NC(=O)[C@H](C)NC(=O)[C@@H]1CCCCNC(=O)C[C@H](NC(=O)[C@H](CCCNC(=N)N)NC(=O)CC[C@H](NC(=O)CCCCCCCCCCCCCCCCCCC(=O)O)C(=O)O)C(=O)NCC(=O)N[C@@H]([C@@H](C)O)C(=O)N[C@@H](CC(C)C)C(=O)N[C@@H]([C@@H](C)O)C(=O)N1)[C@@H](C)O
Work on B7 yielded a hCT-R EC50 [nM] (cAMP formation, 1321N1 cells expressing hCT-R) [1] of 1.41 nM and a hAMYR3 EC50 [nM] (cAMP formation, 1321N1 cells expressing hAMYR3) [2] of 0.456 nM.
